For the test, the target named is T1, C-reactive protein human, recombinant (human), P02741.
T1 chain: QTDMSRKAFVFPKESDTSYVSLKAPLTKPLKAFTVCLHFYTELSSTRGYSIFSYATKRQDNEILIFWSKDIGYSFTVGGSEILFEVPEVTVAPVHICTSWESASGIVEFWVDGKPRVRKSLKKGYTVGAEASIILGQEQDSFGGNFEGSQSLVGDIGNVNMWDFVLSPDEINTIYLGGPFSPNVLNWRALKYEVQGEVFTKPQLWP
Briefly: native MS. The note with it: remark: other sources report otherwise.

B1: C-reactive protein human, recombinant, P02741 19-224 (natural protein)
chain: QTDMSRKAFVFPKESDTSYVSLKAPLTKPLKAFTVCLHFYTELSSTRGYSIFSYATKRQDNEILIFWSKDIGYSFTVGGSEILFEVPEVTVAPVHICTSWESASGIVEFWVDGKPRVRKSLKKGYTVGAEASIILGQEQDSFGGNFEGSQSLVGDIGNVNMWDFVLSPDEINTIYLGGPFSPNVLNWRALKYEVQGEVFTKPQLWP
What is called stoichiometry N is the number of molecules, sites or subunits per partner or assembly. For B1, the stoichiometry N was 5.

These data come from publication PMC7203678.
